Drawing on US20180155451A1 (published 2018), this text covers Ho/Con_2aR for 20 molecules.

T1: FcγRIIa R (human, UniProt P12318 34-217)
T1 construct: extracellular domain; also called FcgRIIa R type; 2aR
T1 sequence (looked up): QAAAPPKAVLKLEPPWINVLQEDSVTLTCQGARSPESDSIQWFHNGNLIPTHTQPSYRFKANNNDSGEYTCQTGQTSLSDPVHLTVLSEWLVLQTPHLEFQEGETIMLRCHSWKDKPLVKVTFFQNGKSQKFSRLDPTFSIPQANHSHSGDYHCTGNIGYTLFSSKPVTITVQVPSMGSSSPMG

B1: GpH7-B3 variant G237_02A/GpL16-k0 (antibody, human IgG1, kappa)
heavy: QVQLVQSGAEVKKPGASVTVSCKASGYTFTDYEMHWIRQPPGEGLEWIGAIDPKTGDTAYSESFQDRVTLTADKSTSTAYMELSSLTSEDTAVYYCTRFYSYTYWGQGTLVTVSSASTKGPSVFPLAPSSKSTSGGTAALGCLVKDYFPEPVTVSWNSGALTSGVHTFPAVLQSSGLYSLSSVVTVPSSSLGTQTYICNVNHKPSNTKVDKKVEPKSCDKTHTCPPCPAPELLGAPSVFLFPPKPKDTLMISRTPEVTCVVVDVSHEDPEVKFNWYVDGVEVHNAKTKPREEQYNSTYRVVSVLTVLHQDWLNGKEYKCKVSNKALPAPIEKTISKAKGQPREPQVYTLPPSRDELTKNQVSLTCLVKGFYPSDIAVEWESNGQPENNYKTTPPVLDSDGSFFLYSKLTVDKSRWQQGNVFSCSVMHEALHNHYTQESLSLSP
light: DIVMTQSPLSLPVTPGEPASISCQASESLVHSNRNTYLHWYLQKPGQSPQLLIYKVSNRFSGVPDRFSGSGSGTDFTLKISRVEAEDVGVYYCSQNTHVPPTFGQGTKVEIERTVAAPSVFIFPPSDEQLKSGTASVVCLLNNFYPREAKVQWKVDNALQSGNSQESVTEQDSKDSTYSLSSTLTLSKADYEKHKVYACEVTHQGLSSPVTKSFNRGEC
notes: also called Ho Ab G237_02A
B2: GpH7-B3 variant I336_06M/GpL16-k0 (antibody, human IgG1, kappa)
heavy: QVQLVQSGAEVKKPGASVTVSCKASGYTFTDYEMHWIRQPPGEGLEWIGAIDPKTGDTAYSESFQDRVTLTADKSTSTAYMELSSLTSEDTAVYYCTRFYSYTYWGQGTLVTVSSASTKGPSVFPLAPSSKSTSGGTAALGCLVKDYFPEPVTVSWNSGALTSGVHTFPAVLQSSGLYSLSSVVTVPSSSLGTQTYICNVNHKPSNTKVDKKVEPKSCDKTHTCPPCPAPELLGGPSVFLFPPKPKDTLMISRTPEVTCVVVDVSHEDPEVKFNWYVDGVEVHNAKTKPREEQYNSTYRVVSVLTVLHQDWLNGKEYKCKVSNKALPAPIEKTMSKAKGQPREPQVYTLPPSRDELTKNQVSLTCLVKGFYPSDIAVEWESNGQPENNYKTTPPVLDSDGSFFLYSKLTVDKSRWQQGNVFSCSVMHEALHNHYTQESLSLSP
light: DIVMTQSPLSLPVTPGEPASISCQASESLVHSNRNTYLHWYLQKPGQSPQLLIYKVSNRFSGVPDRFSGSGSGTDFTLKISRVEAEDVGVYYCSQNTHVPPTFGQGTKVEIERTVAAPSVFIFPPSDEQLKSGTASVVCLLNNFYPREAKVQWKVDNALQSGNSQESVTEQDSKDSTYSLSSTLTLSKADYEKHKVYACEVTHQGLSSPVTKSFNRGEC
notes: also called Ho Ab I336_06M
B3: GpH7-B3 variant H268_15Y/GpL16-k0 (antibody, human IgG1, kappa)
heavy: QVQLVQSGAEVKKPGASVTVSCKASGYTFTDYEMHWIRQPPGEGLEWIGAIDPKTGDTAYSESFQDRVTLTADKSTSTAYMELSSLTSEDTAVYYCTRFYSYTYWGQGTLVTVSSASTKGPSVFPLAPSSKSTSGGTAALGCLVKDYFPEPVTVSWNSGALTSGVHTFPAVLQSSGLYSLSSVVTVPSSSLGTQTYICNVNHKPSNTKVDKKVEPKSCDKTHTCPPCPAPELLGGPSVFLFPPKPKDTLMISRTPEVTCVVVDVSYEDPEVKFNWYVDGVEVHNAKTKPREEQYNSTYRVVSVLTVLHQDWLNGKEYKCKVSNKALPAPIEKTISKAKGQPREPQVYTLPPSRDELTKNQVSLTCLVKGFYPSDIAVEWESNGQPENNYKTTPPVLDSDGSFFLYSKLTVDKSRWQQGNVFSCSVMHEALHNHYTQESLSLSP
light: DIVMTQSPLSLPVTPGEPASISCQASESLVHSNRNTYLHWYLQKPGQSPQLLIYKVSNRFSGVPDRFSGSGSGTDFTLKISRVEAEDVGVYYCSQNTHVPPTFGQGTKVEIERTVAAPSVFIFPPSDEQLKSGTASVVCLLNNFYPREAKVQWKVDNALQSGNSQESVTEQDSKDSTYSLSSTLTLSKADYEKHKVYACEVTHQGLSSPVTKSFNRGEC
notes: also called Ho Ab H268_15Y
B4: GpH7-B3 variant H268_20W/GpL16-k0 (antibody, human IgG1, kappa)
heavy: not shown
light: DIVMTQSPLSLPVTPGEPASISCQASESLVHSNRNTYLHWYLQKPGQSPQLLIYKVSNRFSGVPDRFSGSGSGTDFTLKISRVEAEDVGVYYCSQNTHVPPTFGQGTKVEIERTVAAPSVFIFPPSDEQLKSGTASVVCLLNNFYPREAKVQWKVDNALQSGNSQESVTEQDSKDSTYSLSSTLTLSKADYEKHKVYACEVTHQGLSSPVTKSFNRGEC
notes: also called Ho Ab H268_20W
B5: GpH7-B3 variant H268_03V/GpL16-k0 (antibody, human IgG1, kappa)
heavy: not shown
light: DIVMTQSPLSLPVTPGEPASISCQASESLVHSNRNTYLHWYLQKPGQSPQLLIYKVSNRFSGVPDRFSGSGSGTDFTLKISRVEAEDVGVYYCSQNTHVPPTFGQGTKVEIERTVAAPSVFIFPPSDEQLKSGTASVVCLLNNFYPREAKVQWKVDNALQSGNSQESVTEQDSKDSTYSLSSTLTLSKADYEKHKVYACEVTHQGLSSPVTKSFNRGEC
notes: also called Ho Ab H268_03V
B6: GpH7-B3 variant G237_08L/GpL16-k0 (antibody, human IgG1, kappa)
heavy: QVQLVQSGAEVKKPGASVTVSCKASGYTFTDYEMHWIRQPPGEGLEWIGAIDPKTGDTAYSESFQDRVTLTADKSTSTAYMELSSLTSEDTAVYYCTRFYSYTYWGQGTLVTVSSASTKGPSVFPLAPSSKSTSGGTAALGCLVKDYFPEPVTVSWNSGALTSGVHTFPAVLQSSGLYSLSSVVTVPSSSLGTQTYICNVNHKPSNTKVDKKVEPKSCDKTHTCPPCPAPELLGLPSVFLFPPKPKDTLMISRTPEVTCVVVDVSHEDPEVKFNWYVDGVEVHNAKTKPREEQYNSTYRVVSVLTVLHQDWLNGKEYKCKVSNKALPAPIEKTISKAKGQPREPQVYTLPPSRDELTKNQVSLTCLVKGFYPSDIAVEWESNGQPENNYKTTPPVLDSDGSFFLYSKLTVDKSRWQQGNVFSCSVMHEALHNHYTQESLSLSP
light: DIVMTQSPLSLPVTPGEPASISCQASESLVHSNRNTYLHWYLQKPGQSPQLLIYKVSNRFSGVPDRFSGSGSGTDFTLKISRVEAEDVGVYYCSQNTHVPPTFGQGTKVEIERTVAAPSVFIFPPSDEQLKSGTASVVCLLNNFYPREAKVQWKVDNALQSGNSQESVTEQDSKDSTYSLSSTLTLSKADYEKHKVYACEVTHQGLSSPVTKSFNRGEC
notes: also called Ho Ab G237_08L
B7: GpH7-B3 variant G237_04F/GpL16-k0 (antibody, human IgG1, kappa)
heavy: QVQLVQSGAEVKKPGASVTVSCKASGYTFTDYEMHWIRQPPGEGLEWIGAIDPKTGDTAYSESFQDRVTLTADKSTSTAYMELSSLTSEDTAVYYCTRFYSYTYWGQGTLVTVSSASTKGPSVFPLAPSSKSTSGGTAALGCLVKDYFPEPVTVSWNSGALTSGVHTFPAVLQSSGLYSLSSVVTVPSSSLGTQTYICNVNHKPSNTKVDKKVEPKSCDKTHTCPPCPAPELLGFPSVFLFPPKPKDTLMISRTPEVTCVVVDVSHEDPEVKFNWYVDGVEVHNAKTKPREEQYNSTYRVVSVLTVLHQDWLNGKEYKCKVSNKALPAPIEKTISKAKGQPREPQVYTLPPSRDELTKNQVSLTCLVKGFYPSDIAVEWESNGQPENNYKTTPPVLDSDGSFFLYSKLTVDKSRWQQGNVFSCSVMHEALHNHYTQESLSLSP
light: DIVMTQSPLSLPVTPGEPASISCQASESLVHSNRNTYLHWYLQKPGQSPQLLIYKVSNRFSGVPDRFSGSGSGTDFTLKISRVEAEDVGVYYCSQNTHVPPTFGQGTKVEIERTVAAPSVFIFPPSDEQLKSGTASVVCLLNNFYPREAKVQWKVDNALQSGNSQESVTEQDSKDSTYSLSSTLTLSKADYEKHKVYACEVTHQGLSSPVTKSFNRGEC
notes: also called Ho Ab G237_04F
B8: GpH7-B3 variant H268_12R/GpL16-k0 (antibody, human IgG1, kappa)
heavy: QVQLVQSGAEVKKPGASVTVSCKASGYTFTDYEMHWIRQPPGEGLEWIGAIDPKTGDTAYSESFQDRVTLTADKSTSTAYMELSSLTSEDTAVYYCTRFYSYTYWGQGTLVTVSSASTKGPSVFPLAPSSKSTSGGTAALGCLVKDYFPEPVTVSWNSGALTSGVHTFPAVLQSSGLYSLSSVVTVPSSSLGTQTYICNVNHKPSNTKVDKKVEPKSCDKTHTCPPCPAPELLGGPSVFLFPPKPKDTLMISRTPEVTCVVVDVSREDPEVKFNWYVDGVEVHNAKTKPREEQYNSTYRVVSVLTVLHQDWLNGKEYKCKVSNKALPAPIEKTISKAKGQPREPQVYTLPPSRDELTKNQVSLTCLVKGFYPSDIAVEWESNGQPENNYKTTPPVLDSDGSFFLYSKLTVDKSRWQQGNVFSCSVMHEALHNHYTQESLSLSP
light: DIVMTQSPLSLPVTPGEPASISCQASESLVHSNRNTYLHWYLQKPGQSPQLLIYKVSNRFSGVPDRFSGSGSGTDFTLKISRVEAEDVGVYYCSQNTHVPPTFGQGTKVEIERTVAAPSVFIFPPSDEQLKSGTASVVCLLNNFYPREAKVQWKVDNALQSGNSQESVTEQDSKDSTYSLSSTLTLSKADYEKHKVYACEVTHQGLSSPVTKSFNRGEC
notes: also called Ho Ab H268_12R
B9: GpH7-B3 variant H268_05P/GpL16-k0 (antibody, human IgG1, kappa)
heavy: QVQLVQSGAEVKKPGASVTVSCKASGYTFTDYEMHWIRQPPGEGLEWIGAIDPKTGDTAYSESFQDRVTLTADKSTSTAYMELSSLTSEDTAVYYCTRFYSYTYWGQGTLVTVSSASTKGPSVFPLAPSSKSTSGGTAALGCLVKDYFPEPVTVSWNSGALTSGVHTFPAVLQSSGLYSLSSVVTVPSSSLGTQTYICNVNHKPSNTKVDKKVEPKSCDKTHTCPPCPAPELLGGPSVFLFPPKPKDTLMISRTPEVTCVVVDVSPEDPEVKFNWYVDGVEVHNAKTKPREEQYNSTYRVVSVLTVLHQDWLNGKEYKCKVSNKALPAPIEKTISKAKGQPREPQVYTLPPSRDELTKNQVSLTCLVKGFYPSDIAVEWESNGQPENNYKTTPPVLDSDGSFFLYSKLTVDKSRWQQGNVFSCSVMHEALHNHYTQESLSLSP
light: DIVMTQSPLSLPVTPGEPASISCQASESLVHSNRNTYLHWYLQKPGQSPQLLIYKVSNRFSGVPDRFSGSGSGTDFTLKISRVEAEDVGVYYCSQNTHVPPTFGQGTKVEIERTVAAPSVFIFPPSDEQLKSGTASVVCLLNNFYPREAKVQWKVDNALQSGNSQESVTEQDSKDSTYSLSSTLTLSKADYEKHKVYACEVTHQGLSSPVTKSFNRGEC
notes: also called Ho Ab H268_05P
B10: GpH7-B3 variant G237_20W/GpL16-k0 (antibody, human IgG1, kappa)
heavy: not shown
light: DIVMTQSPLSLPVTPGEPASISCQASESLVHSNRNTYLHWYLQKPGQSPQLLIYKVSNRFSGVPDRFSGSGSGTDFTLKISRVEAEDVGVYYCSQNTHVPPTFGQGTKVEIERTVAAPSVFIFPPSDEQLKSGTASVVCLLNNFYPREAKVQWKVDNALQSGNSQESVTEQDSKDSTYSLSSTLTLSKADYEKHKVYACEVTHQGLSSPVTKSFNRGEC
notes: also called Ho Ab G237_20W
B11: GpH7-B3 variant G237_06M/GpL16-k0 (antibody, human IgG1, kappa)
heavy: not shown
light: DIVMTQSPLSLPVTPGEPASISCQASESLVHSNRNTYLHWYLQKPGQSPQLLIYKVSNRFSGVPDRFSGSGSGTDFTLKISRVEAEDVGVYYCSQNTHVPPTFGQGTKVEIERTVAAPSVFIFPPSDEQLKSGTASVVCLLNNFYPREAKVQWKVDNALQSGNSQESVTEQDSKDSTYSLSSTLTLSKADYEKHKVYACEVTHQGLSSPVTKSFNRGEC
notes: also called Ho Ab G237_06M
B12: GpH7-B3 variant I332_06M/GpL16-k0 (antibody, human IgG1, kappa)
heavy: not shown
light: DIVMTQSPLSLPVTPGEPASISCQASESLVHSNRNTYLHWYLQKPGQSPQLLIYKVSNRFSGVPDRFSGSGSGTDFTLKISRVEAEDVGVYYCSQNTHVPPTFGQGTKVEIERTVAAPSVFIFPPSDEQLKSGTASVVCLLNNFYPREAKVQWKVDNALQSGNSQESVTEQDSKDSTYSLSSTLTLSKADYEKHKVYACEVTHQGLSSPVTKSFNRGEC
notes: also called Ho Ab I332_06M
B13: GpH7-B3 variant I332_14T/GpL16-k0 (antibody, human IgG1, kappa)
heavy: not shown
light: DIVMTQSPLSLPVTPGEPASISCQASESLVHSNRNTYLHWYLQKPGQSPQLLIYKVSNRFSGVPDRFSGSGSGTDFTLKISRVEAEDVGVYYCSQNTHVPPTFGQGTKVEIERTVAAPSVFIFPPSDEQLKSGTASVVCLLNNFYPREAKVQWKVDNALQSGNSQESVTEQDSKDSTYSLSSTLTLSKADYEKHKVYACEVTHQGLSSPVTKSFNRGEC
notes: also called Ho Ab I332_14T
B14: GpH7-B3 variant G237_10E/GpL16-k0 (antibody, human IgG1, kappa)
heavy: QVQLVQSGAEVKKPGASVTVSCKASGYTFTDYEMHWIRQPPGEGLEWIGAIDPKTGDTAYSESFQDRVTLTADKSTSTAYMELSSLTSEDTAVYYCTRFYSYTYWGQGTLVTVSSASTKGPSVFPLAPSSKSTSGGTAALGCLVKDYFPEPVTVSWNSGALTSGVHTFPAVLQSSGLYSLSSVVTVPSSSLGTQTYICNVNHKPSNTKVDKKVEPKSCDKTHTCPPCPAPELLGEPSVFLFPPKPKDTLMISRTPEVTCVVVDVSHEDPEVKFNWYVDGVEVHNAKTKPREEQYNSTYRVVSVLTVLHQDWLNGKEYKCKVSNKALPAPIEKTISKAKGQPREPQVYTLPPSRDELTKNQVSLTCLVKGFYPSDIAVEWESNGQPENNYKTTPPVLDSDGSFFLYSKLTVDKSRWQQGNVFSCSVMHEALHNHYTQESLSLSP
light: DIVMTQSPLSLPVTPGEPASISCQASESLVHSNRNTYLHWYLQKPGQSPQLLIYKVSNRFSGVPDRFSGSGSGTDFTLKISRVEAEDVGVYYCSQNTHVPPTFGQGTKVEIERTVAAPSVFIFPPSDEQLKSGTASVVCLLNNFYPREAKVQWKVDNALQSGNSQESVTEQDSKDSTYSLSSTLTLSKADYEKHKVYACEVTHQGLSSPVTKSFNRGEC
notes: also called Ho Ab G237_10E
B15: GpH7-B3 variant G237_13S/GpL16-k0 (antibody, human IgG1, kappa)
heavy: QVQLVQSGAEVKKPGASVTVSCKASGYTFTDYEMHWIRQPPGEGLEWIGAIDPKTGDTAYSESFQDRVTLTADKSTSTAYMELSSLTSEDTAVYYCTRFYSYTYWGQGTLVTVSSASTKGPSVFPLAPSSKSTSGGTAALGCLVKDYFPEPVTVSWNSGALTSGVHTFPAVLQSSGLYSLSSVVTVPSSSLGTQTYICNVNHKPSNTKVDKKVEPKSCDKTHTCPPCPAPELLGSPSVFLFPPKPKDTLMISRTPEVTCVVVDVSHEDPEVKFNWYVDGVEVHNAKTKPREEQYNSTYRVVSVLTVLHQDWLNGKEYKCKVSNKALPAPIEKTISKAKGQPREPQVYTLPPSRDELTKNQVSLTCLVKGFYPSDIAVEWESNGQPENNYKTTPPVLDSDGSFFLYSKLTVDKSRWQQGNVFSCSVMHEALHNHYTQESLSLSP
light: DIVMTQSPLSLPVTPGEPASISCQASESLVHSNRNTYLHWYLQKPGQSPQLLIYKVSNRFSGVPDRFSGSGSGTDFTLKISRVEAEDVGVYYCSQNTHVPPTFGQGTKVEIERTVAAPSVFIFPPSDEQLKSGTASVVCLLNNFYPREAKVQWKVDNALQSGNSQESVTEQDSKDSTYSLSSTLTLSKADYEKHKVYACEVTHQGLSSPVTKSFNRGEC
notes: also called Ho Ab G237_13S
B16: GpH7-B3 variant G237_19Q/GpL16-k0 (antibody, human IgG1, kappa)
heavy: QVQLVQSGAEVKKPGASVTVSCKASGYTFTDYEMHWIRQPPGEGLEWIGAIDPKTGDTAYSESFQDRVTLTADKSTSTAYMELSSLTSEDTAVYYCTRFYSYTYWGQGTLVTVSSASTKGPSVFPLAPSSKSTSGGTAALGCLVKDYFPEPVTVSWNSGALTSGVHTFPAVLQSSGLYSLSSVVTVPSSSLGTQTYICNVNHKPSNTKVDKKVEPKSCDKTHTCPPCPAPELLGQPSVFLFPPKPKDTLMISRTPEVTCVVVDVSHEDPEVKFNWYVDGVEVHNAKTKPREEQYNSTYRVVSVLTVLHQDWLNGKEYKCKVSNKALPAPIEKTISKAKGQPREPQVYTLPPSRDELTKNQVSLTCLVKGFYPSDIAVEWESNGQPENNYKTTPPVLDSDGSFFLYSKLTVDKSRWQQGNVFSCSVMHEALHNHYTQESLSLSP
light: DIVMTQSPLSLPVTPGEPASISCQASESLVHSNRNTYLHWYLQKPGQSPQLLIYKVSNRFSGVPDRFSGSGSGTDFTLKISRVEAEDVGVYYCSQNTHVPPTFGQGTKVEIERTVAAPSVFIFPPSDEQLKSGTASVVCLLNNFYPREAKVQWKVDNALQSGNSQESVTEQDSKDSTYSLSSTLTLSKADYEKHKVYACEVTHQGLSSPVTKSFNRGEC
notes: also called Ho Ab G237_19Q
B17: GpH7-B3 variant G237_09D/GpL16-k0 (antibody, human IgG1, kappa)
heavy: not shown
light: DIVMTQSPLSLPVTPGEPASISCQASESLVHSNRNTYLHWYLQKPGQSPQLLIYKVSNRFSGVPDRFSGSGSGTDFTLKISRVEAEDVGVYYCSQNTHVPPTFGQGTKVEIERTVAAPSVFIFPPSDEQLKSGTASVVCLLNNFYPREAKVQWKVDNALQSGNSQESVTEQDSKDSTYSLSSTLTLSKADYEKHKVYACEVTHQGLSSPVTKSFNRGEC
notes: also called Ho Ab G237_09D
B18: GpH7-B3 variant G237_18N/GpL16-k0 (antibody, human IgG1, kappa)
heavy: not shown
light: DIVMTQSPLSLPVTPGEPASISCQASESLVHSNRNTYLHWYLQKPGQSPQLLIYKVSNRFSGVPDRFSGSGSGTDFTLKISRVEAEDVGVYYCSQNTHVPPTFGQGTKVEIERTVAAPSVFIFPPSDEQLKSGTASVVCLLNNFYPREAKVQWKVDNALQSGNSQESVTEQDSKDSTYSLSSTLTLSKADYEKHKVYACEVTHQGLSSPVTKSFNRGEC
notes: also called Ho Ab G237_18N
B19: GpH7-B3 variant H268_11K/GpL16-k0 (antibody, human IgG1, kappa)
heavy: not shown
light: DIVMTQSPLSLPVTPGEPASISCQASESLVHSNRNTYLHWYLQKPGQSPQLLIYKVSNRFSGVPDRFSGSGSGTDFTLKISRVEAEDVGVYYCSQNTHVPPTFGQGTKVEIERTVAAPSVFIFPPSDEQLKSGTASVVCLLNNFYPREAKVQWKVDNALQSGNSQESVTEQDSKDSTYSLSSTLTLSKADYEKHKVYACEVTHQGLSSPVTKSFNRGEC
notes: also called Ho Ab H268_11K
B20: GpH7-B3 variant H268_01G/GpL16-k0 (antibody, human IgG1, kappa)
heavy: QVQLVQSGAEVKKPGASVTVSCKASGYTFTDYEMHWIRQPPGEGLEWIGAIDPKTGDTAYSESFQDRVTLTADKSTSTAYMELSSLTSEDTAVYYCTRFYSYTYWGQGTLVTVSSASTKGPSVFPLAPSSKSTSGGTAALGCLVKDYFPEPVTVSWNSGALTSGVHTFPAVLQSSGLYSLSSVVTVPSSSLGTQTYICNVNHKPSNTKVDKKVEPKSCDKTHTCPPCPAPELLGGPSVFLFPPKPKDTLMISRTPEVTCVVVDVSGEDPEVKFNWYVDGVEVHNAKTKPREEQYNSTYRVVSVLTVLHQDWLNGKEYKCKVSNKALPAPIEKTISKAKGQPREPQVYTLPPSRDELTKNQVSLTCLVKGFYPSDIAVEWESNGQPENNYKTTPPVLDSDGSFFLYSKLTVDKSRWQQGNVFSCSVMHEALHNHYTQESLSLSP
light: DIVMTQSPLSLPVTPGEPASISCQASESLVHSNRNTYLHWYLQKPGQSPQLLIYKVSNRFSGVPDRFSGSGSGTDFTLKISRVEAEDVGVYYCSQNTHVPPTFGQGTKVEIERTVAAPSVFIFPPSDEQLKSGTASVVCLLNNFYPREAKVQWKVDNALQSGNSQESVTEQDSKDSTYSLSSTLTLSKADYEKHKVYACEVTHQGLSSPVTKSFNRGEC
notes: also called Ho Ab H268_01G

This assay has as its target T1, FcγRIIa R. Briefly: SPR Biacore; vs GpH7-B3/GpL16-k0 =100. Here is the method:
Analysis of interaction between objective antibody and the FcγR was carried out using Biacore T100 (GE Healthcare). HBS-EP+ (GE Healthcare) was used as the running buffer, and the measurement temperature was set to 25° C. Chips produced by immobilizing the antigen peptide by the amine coupling method to a Series S Sencor Chip CM5 (GE Healthcare), or alternatively, chips produced by allowing preliminarily biotinylated antigen peptides to interact with and immobilize onto a Series S Sensor Chip SA (certified) (GE Healthcare) were used. Antibodies of interest were captured onto an antigen peptide-immobilized chip, and allowed to interact to each FcγR diluted with running buffer. To regenerate and repeatedly use the chip, the antibodies captured on the chip were washed off by reacting 10 mM glycine-HCl, pH 1.5.
The FcγR-binding activity of each antibody was assessed primarily using as an indicator the FcγR-binding activity and dissociation constant for FcγR.
Turning to B1, the Ho/Con_2aR was 84 % of control.

As for B2, the Ho/Con_2aR was 96.4 % of control.

Take B3: the Ho/Con_2aR was 106 % of control.

In the case of B4, the Ho/Con_2aR was 110 % of control.

As for B5, the Ho/Con_2aR is 105 % of control.

As to B6, the Ho/Con_2aR is 56.6 % of control.

B7: the Ho/Con_2aR was 113 % of control.

As for B8, the Ho/Con_2aR was 98.5 % of control.

As to B9, the Ho/Con_2aR is 95.9 % of control.

In the case of B10, the Ho/Con_2aR is 107 % of control.

B11: the Ho/Con_2aR was 55.3 % of control.

On to B12, for which the Ho/Con_2aR is 105 % of control.

In the case of B13, the Ho/Con_2aR was 99.6 % of control.

Turning to B14, the Ho/Con_2aR is 22.5 % of control.

Consider B15, for which the Ho/Con_2aR was 44.4 % of control.

As for B16, the Ho/Con_2aR was 14.3 % of control.

For B17, the Ho/Con_2aR was 73.1 % of control.

Turning to B18, the Ho/Con_2aR was 73.6 % of control.

Turning to B19, the Ho/Con_2aR was 93.4 % of control.

On to B20, for which the Ho/Con_2aR is 122 % of control.
